In US7479480B2, “Peptides that promote lipid efflux” (Lipid Sciences, Inc., priority 2006, dated 2009):
Ends that are not written are not given here.

Legend:
[1] = system: ApoE knockout and LDL receptor knockout mice; assay: Aortic atherosclerosis in ApoE and LDL receptor knockout mice (Example 14); format: in vivo, mouse; conditions: 30 mg/kg ip three times per week, 4-5 or 8-10 weeks
Protocol: The mice receive 3 injections per week for either 4-6 or 8-10 weeks. After the completion of the injection, the amount of hardening of the arteries or atherosclerosis is determined in the control injected animals and peptide injected animals to determine if the injections of the synthetic peptide decreased development of atherosclerosis.
For infusion studies B and C, mice are injected ip with either placebo or a synthetic peptide of the present invention (30 mg/kg) three times per week for either 4 to 5 weeks (Infusion Study B) or 8 to 10 weeks (Infusion Study C). Blood for lipid and lipoprotein analyses is obtained at the beginning of the study (day 0) and every two weeks after placebo/peptide injection and at the completion of the study. At the completion of the study (4 to 5 weeks for Infusion Study B and 8 to 10 weeks for Infusion Study C), the animals are sacrificed, organs harvested for analyses of cholesterol content and for aortic atherosclerosis.
No more than 300 ul blood every two weeks is obtained from each mouse. • 4) At the end of Infusion Study B and C all mice are sacrificed by cervical dislocation following isoflurane anesthesia and organs are harvested for analyses of cholesterol as well as aortic atherosclerosis. Before intraperitoneal injections, brief inhaled analgesia is obtained by isoflurane utilizing the E-Z Rodent Anesthesia System in the procedure room. […]

[2] = system: vascular cell adhesion molecule-1; assay: Cytokine-induced V-CAM expression in human coronary artery endothelial cells; format: cell-based; conditions: initial data; p<0.05
Protocol: (§1) J774 macrophages and Fu5AH […] in culture were used to determine the specificity of SEQ ID NO: 602 to efflux cholesterol by the ABCA-I or SRBI pathways using the methods of de la Llera Moya, M., V., et al. “A cell culture system for screening human serum for ability to promote cellular cholesterol efflux. Relations between serum components and efflux, esterification, and transfer.” Arterioscler. Thromb. 14: 1056-1065 (1994). Anti-inflammatory properties were evaluated by determination of inhibition of expression of activated CD11B human monocytes and suppression of cytokine-induced vascular cell adhesion molecule-1, V-CAM, expression in human coronary artery endothelial cells (HCAECs).

ABCA1 = target: T1, ABCA1 (Mus musculus, UniProt P41233); assay: ABCA1 mediated cholesterol efflux; format: cell-based; parameters: +ABCA1 Cells / −ABCA1 Cells: unit not given here; conditions: for cholesterol efflux via the ABCA-I pathway: Example 17, J774 macrophages; for +ABCA1 Cells / −ABCA1 Cells / ABCA1 Mediated Efflux % Per 4 h: minus blank; for dose dependence of cholesterol efflux from cells containing the ABCA1 pathway (FIG. 3): range of 5 ug/ml to 30 ug/ml; for efflux of cholesterol from J774 macrophage cells (ABCA1 pathway): result in words
T1 construct: endogenous in cells; host or cells: J774 mouse macrophage cells
Text: (§2) The methods employed in this study have been described in U.S. Pat. Nos. 7,029,863, 7,060,452, U.S. Patent Application Publication No. 2005/0191715, and in Moya et al., Arteriosclerosis & Thrombosis 1994:14:1056-1065 and Liu et al., J. Biol. Chem., 2003:278(44), 42976-42984. SR-B1 mediated cholesterol efflux was examined in FU5AH rat hepatoma cells and ABCA1 mediated cholesterol efflux was examined in J774 mouse macrophage cells as described in these references.
as §1

SR-B1 = target: T2, SR-B1 (Rattus norvegicus, UniProt P97943); assay: SR-BI mediated cholesterol efflux; format: cell-based; conditions: for SR-BI Mediated Efflux % Per 4 h: minus blank; for cholesterol efflux from the Fu5AH cells (SRB1 pathway): result in words
T2 construct: endogenous in cells; host or cells: Fu5AH rat hepatoma cells
T2 sequence (P97943 1-509): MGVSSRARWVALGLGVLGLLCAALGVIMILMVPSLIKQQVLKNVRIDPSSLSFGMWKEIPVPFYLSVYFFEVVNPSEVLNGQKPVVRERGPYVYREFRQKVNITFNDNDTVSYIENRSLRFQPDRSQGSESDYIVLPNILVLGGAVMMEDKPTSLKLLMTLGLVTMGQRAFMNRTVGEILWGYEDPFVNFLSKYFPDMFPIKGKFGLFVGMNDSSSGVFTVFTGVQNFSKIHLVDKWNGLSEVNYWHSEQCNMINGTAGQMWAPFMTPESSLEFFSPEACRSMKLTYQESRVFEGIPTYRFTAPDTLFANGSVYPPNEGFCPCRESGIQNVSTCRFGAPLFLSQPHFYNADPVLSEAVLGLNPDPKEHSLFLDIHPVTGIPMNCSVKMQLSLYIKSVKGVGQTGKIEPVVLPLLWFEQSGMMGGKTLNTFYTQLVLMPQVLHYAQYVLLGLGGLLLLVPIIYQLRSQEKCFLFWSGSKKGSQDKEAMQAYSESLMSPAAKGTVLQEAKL
Text: as §2, §1

CD11b = CD11b expression in stimulated monocytes by flow cytometry; format: cell-based, human; conditions: for PMA-induced CD11b expression in human monocytes: 20 μg/ml, PMA 1 μmol/L, FIG. 2
Protocol: Monocyte Isolation Peripheral whole blood (PWB) was drawn from healthy consenting individuals into syringes containing sodium citrate (final concentration—19.2 mM). Resting human monocytes were isolated from PWB by density centrifugation with Lymphoprep (Axis Shield). Mononuclear cells (MNCs) were collected and monocytes were further separated to purity using the Dynal negative isolation kit (Invitrogen). Monocytes were resuspended in phosphate buffered saline (PBS) and cell number was determined counting cell suspension on an automated hematology analyzer (Sysmex, KX-21N, USA).
Flow Cytometry 100 μL of monocytes were stimulated with either 1 μmol/L phorbol-myristate-acetate (PMA) or 1 μg/ml lipopolysaccharide (LPS) (Sigma, Australia) in the presence or absence of apoA-1 (20 μg/ml), or 20 μg/ml of the test peptide SEQ ID NO: 602 (Ac-[…]NH2), each tested separately. The cells were incubated with the FITC conjugated antibody to either the active epitope of CD11b (eBiosciences, USA, Clone CBRM1/5) or total CD11b (Serotec, USA, Clone ICRF44) for 15 min at 37° C. Cells were then fixed with 4% para-formaldehyde. Samples were controlled for by using the appropriately matched isotype matched negative control (FITC-anti-mouse IgG) (Serotec, USA, Clone W3/25). CD11b expression was measured by flow cytometry using FACS Calibur (Becton Dickinson). Analysis was conducted using the Cell Quest Pro software.
Statistical Analysis Values are presented as the mean±SD or percentage of control±SD. FACS results were analyzed for statistical significance using one-way ANOVA followed by Bonferroni post-hoc test. Significance was accepted at P<0.05.
as §1

[3] = system: HeLa cells transfected with only a hygromycin-resistant control plasmid; assay: Cholesterol and phospholipid efflux from control cells; format: cell-based, human; conditions: result in words
Protocol: (§3) HeLa cells stably transfected with human ABCA1 cDNA (ABCA1 cells) and HeLa cells transfected with only a hygromycin-resistant control plasmid (control cells) are produced and grown in α-modified Eagle's medium (aMEM) plus 10% fetal calf serum, as described by Remaley et al. (Biochem. Biophys. Res. Commun. 280:818-823, 2001). Cholesterol and phospholipid efflux is performed for 18 hours on noncholesterol-loaded cells radiolabeled with either cholesterol or choline (Remaley et al., Arterioscler. Thromb. Vasc. Biol. 17:1813-1821, 1997). Percentage efflux is calculated after subtracting the radioactive counts in the blank media (aMEM plus 1 mg/ml of BSA), and expressed as the percent of total radioactive counts removed from the cells during the efflux period.
ABCA1 cells are used to assess the ability of apoA-I and synthetic peptides to efflux lipid from cells. […] The peptides of the present invention efflux approximately 2- to 4-fold more cholesterol and phospholipid from ABCA1 cells than from control cells. Both the peptides of the present invention and apoA-I began to show saturation for lipid efflux at approximately the same protein concentration of 10 μg/ml. The peptides of the present invention remove more cholesterol and phospholipids from control cells than apoA-I. […]

[4] = system: HeLa cells stably transfected with human ABCA1 cDNA; assay: Cholesterol and phospholipid efflux from ABCA1 cells; format: cell-based
Protocol: as §3, with “Cholesterol and phospholipid efflux is performed for 18 hours on noncholesterol-loaded cells radiolabeled with either cholesterol or choline (Remaley et al., Arterioscler.” left out
ABCA1 cells are used to assess the ability of apoA-I and synthetic peptides to efflux lipid from cells. […] The peptides of the present invention efflux approximately 2- to 4-fold more cholesterol and phospholipid from ABCA1 cells than from control cells. Both the peptides of the present invention and apoA-I began to show saturation for lipid efflux at approximately the same protein concentration of 10 μg/ml. The peptides of the present invention remove more cholesterol and phospholipids from control cells than apoA-I.
Cholesterol efflux from ABCA1 cells to apoA-I is first detectable after 2 hours and increases throughout the 30 hour efflux period. […]

[5] = J774 cells, peptides at 30 μg/ml
[6] = J774 cells, peptides at 30 μg/ml, listed as 5
[7] = J774 mouse macrophage cells, peptides at 30 μg/ml
[8] = FU5AH rat hepatoma cells, peptides at 30 μg/ml
[9] = J774 cells, peptides at 30 μg/ml, listed as 3
[10] = controls: 2% human serum pool, Apo A-I @ 20 μg/ml

T1 sequence (P41233 whole entry): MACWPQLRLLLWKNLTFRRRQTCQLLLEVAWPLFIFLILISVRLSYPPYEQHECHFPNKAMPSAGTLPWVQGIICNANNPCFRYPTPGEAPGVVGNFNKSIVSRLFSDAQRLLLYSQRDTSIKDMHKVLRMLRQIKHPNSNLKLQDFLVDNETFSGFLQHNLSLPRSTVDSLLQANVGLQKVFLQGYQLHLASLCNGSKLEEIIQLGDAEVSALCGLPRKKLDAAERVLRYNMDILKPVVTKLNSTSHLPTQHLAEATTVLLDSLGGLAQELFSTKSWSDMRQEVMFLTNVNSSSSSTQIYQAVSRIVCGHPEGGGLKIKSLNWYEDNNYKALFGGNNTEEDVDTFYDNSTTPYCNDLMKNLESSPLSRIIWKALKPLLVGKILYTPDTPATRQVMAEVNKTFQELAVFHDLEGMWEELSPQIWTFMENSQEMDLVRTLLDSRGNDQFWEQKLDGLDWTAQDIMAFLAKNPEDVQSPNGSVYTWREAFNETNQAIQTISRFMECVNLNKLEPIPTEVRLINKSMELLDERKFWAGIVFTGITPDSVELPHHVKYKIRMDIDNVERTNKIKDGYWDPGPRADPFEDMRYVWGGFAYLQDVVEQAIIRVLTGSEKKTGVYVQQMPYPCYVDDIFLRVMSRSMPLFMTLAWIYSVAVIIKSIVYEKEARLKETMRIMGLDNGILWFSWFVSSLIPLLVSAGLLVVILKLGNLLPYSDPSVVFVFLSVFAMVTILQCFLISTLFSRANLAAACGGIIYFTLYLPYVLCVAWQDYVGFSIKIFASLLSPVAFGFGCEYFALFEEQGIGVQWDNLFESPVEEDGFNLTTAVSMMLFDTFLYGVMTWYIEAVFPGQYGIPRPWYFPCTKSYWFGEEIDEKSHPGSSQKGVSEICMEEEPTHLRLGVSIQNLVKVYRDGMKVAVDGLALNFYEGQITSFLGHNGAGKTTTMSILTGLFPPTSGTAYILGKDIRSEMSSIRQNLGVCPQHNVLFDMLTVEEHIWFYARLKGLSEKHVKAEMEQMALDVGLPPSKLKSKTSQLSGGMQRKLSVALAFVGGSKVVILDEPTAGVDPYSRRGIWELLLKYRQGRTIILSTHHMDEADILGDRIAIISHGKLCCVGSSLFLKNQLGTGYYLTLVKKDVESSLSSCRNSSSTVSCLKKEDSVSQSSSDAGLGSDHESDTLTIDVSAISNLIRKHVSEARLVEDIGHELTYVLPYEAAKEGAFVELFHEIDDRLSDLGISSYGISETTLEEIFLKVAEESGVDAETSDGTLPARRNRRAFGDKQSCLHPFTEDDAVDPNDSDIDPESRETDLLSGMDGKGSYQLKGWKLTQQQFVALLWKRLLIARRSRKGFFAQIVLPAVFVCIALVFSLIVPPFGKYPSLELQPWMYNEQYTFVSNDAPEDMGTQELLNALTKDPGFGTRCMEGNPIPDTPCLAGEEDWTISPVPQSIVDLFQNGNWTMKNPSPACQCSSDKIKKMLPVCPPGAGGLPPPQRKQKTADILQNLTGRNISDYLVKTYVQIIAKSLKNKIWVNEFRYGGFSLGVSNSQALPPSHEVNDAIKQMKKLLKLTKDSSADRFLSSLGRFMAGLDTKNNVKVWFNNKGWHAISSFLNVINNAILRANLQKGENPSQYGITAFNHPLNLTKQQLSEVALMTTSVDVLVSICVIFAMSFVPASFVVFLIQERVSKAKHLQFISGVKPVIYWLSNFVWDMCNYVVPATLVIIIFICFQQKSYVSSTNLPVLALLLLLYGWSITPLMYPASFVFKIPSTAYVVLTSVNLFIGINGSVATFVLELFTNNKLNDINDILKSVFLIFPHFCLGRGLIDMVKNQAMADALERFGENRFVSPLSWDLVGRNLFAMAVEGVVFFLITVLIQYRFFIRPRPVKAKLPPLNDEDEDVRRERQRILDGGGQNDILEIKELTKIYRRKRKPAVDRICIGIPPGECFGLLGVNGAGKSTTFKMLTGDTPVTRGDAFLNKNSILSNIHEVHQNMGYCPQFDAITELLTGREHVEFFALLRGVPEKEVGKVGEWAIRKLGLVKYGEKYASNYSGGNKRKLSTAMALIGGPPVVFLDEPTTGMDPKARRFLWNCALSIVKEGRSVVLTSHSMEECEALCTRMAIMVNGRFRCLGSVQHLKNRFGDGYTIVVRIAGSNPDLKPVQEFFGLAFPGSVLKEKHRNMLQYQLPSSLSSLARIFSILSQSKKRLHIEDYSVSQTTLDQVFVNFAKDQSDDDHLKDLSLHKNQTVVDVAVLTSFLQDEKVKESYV

| Substance | aortic atherosclerosis compared to controls [1] | cholesterol efflux via the ABCA-I pathway (ABCA1) | +ABCA1 Cells (ABCA1; [5]) | −ABCA1 Cells (ABCA1; [5]) | ABCA1 Mediated Efflux % Per 4 h (ABCA1; [7]) [% Per 4 h] | dose dependence of cholesterol efflux from cells containing the ABCA1 pathway (FIG. 3) (ABCA1) | efflux of cholesterol from J774 macrophage cells (ABCA1 pathway) (ABCA1) | SR-BI Mediated Efflux % Per 4 h (SR-B1; [8]) [% Per 4 h] | cholesterol efflux from the Fu5AH cells (SRB1 pathway) (SR-B1) | PMA-induced CD11b expression in human monocytes (CD11b) | other results |
| --- | --- | --- | --- | --- | --- | --- | --- | --- | --- | --- | --- |
| Ac-Ser Pro Leu Leu Glu Ser Ala Lys Val Ser Ala Leu Ser Ala Leu Glu Glu Ala Thr Lys Lys Lys Leu Ser Pro Leu Leu Glu Ser Phe Lys Val Ser Phe Leu Ser Ala Leu Glu Glu Tyr Thr Lys Lys Leu Asn Thr Gln-NH2 (Ac-SPLLESAKVSALSALEEATKKKLSPLLESFKVSFLSALEEYTKKLNTQ-NH2) [Peptide 1] | decrease aortic atherosclerosis | 15.34%+2.57 | 20.338 ± 0.136 | 1.624 ± 0.126 | 18.71 | dose dependent stimulation | stimulated efflux of cholesterol | 0.15 | negligible or no effect | decrease | V-CAM-1 mRNA levels in HCAECs [2]: decreases; +ABCA1 Cells (ABCA1; [6]): 15.718 ± 0.123; −ABCA1 Cells (ABCA1; [6]): 1.215 ± 0.288; ABCA1 Mediated Efflux % Per 4 h (ABCA1; J774 mouse macrophage cells, peptides at 30 μg/ml, listed as 5): 14.50 % Per 4 h; SRB-1 pathway activity (cholesterol efflux) (SR-B1; Example 17, Fu5AH cells): no SRB-1 pathway activity; SR-BI Mediated Efflux % Per 4 h (SR-B1; FU5AH rat hepatoma cells, peptides at 30 μg/ml, listed as 5): 0.25 % Per 4 h; PMA-induced CD11b expression in human monocytes (CD11b; listed as SEQ ID NO: 602): significantly reduced; Inhibition of expression of CD11B on human monocytes (CD11b; Example 17, p=<0.01, comparable to apo A-I): statistically significant |
| SPLLESAKVSALSALEEATKKKLSPLLESFKVSFLSALEEYTKKLNTQ [Peptide 4] | decrease aortic atherosclerosis |  | 12.420 ± 1.019 | 1.224 ± 0.121 | 11.20 | dose dependent stimulation | stimulated efflux of cholesterol | 0.10 | negligible or no effect |  |  |
| Ser Pro Leu Ser Asp Glu Lcu Arg Gln Arg Lcu Ala Ala Arg Lcu Glu Ala Leu Lys Glu Asn Lys Leu Ser Pro Leu Leu Glu Ser Phe Lys Val Ser Phe Leu Ser Ala Leu Glu Glu Tyr Thr Lys Lys Leu Asn Thr Gln (SPLSDELRQRLAARLEALKENKLSPLLESFKVSFLSALEEYTKKLNTQ) [Peptide 2] |  |  | 14.283 ± 0.545 | 1.205 ± 0.211 | 13.08 | dose dependent stimulation | stimulated efflux of cholesterol | 0.16 | negligible or no effect |  | +ABCA1 Cells (ABCA1; [9]): 13.447 ± 0.549; −ABCA1 Cells (ABCA1; [9]): 1.306 ± 0.261; ABCA1 Mediated Efflux % Per 4 h (ABCA1; J774 mouse macrophage cells, peptides at 30 μg/ml, listed as 3): 12.14 % Per 4 h |
| apolipoprotein A-I [Apo A-I] |  | 15.99%+2.07 |  |  |  |  |  |  |  | decrease | cholesterol efflux from control cells (time course) [3]: no significant increase above background; +ABCA1 Cells (ABCA1; [10]): 20.682 ± 0.724; ABCA1 Mediated Efflux % Per 4 h (ABCA1; [10]): 18.97 % Per 4 h; −ABCA1 Cells (ABCA1; [10]): 1.713 ± 0.409; SR-BI Mediated Efflux % Per 4 h (SR-B1; [10]): 0.26 % Per 4 h; protein concentration at which lipid efflux begins to show saturation [4]: ~10 µg/mL; time at which cholesterol efflux from ABCA1 cells is first detectable ([4]; 30 hour efflux period): 2 h; PMA-induced CD11b expression in human monocytes (CD11b; listed as ApoA1): significantly reduced |
